# Source: US20180265560A1 (CASE WESTERN RESERVE UNIVERSITY, published 2018)
# Bridges are numbered along the chain shown (N, C = ends). Where no end group is shown, it is not given here.
# Key:
# Type 1 IGF-I receptor = target: T1, Type 1 IGF-I receptor (UniProt P08069 31-1367, limits assumed); assay: competitive receptor-binding assay, against wild-type human insulin as reference
# T1 construct: also called IGF-1R; Type 1 insulin-like growth factor receptor
# [1] = target: T2, A isoform of the insulin receptor (UniProt P06213-2 28-1370, limits assumed); assay: competitive displacement of radiolabelled tracer, receptor on microtiter plates coated with AU5 IgG
# T2 construct: isoform A lacks exon 11; also called IR-A
# Procedure: The assay employed the A isoform of the insulin receptor. […] The protocol for assay of receptor-binding activities was as follows. Microtiter strip plates (Nunc Maxisorb) were incubated overnight at 4° C. with AU5 IgG (100 μl/well of 40 mg/ml in phosphate-buffered saline). Binding data were analyzed by a two-site sequential model.
Binder,fold lower affinity than wild-type human insulin (Type 1 IGF-I receptor) [fold],Kd [1] [nM]
"SCI-57DP (ligand, disulfide 19-56, 42-47, 7-43, Made in Pichia pastoris; the cleaved product has 57 residues with native disulfide bridges; also called SCI-2; Thermalin-biphasic) FVNQHLCGSHLVEALYLVCGERGFFYTDPTEEGPRRGIVEQCCHSICSLEQLENYCN",5,0.06
"SCI-57PE (ligand, disulfide 19-56, 42-47, 7-43, Made in Pichia pastoris; the cleaved product has 57 residues with native disulfide bridges; also called SCI-1; Thermalin-biphasic) FVNQHLCGSHLVEALYLVCGERGFFYTPETEEGPRRGIVEQCCHSICSLEQLENYCN",–,0.08
